Changes are numbered by the printed parent chain.
B1: EP18Km-6: mutant R. glutinis PAL enzyme having enhanced TAL activity, Ile540Thr, SEQ ID NO:10 (protein)
chain: MAPSLDSISHSFANGVASAKQAVNGASTNLAVAGSHLPTTQVTQVDIVEKMLAAPTDSTLELDGYSLNLGDVVSAARKGRPVRVKDSDEIRSKIDKSVEFLRSQLSMSVYGVTTGFGGSADTRTEDAISLQKALLEHQLCGVLPSSFDSFRLGRGLENSLPLEVVRGAMTIRVNSLTRGHSAVRLVVLEALTNFLNHGITPIVPLRGTISASGDLSPLSYIAAAISGHPDSKVHVVHEGKEKILYAREAMALFNLEPVVLGPKEGLGLVNGTAVSASMATLALHDAHMLSLLSQSLTAMTVEAMVGHAGSFHPFLHDVTRPHPTQIEVAGNIRKLLEGSRFAVHHEEEVKVKDDEGILRQDRYPLRTSPQWLGPLVSDLIHAHAVLTIEAGQSTTDNPLIDVENKTSHHGGNFQAAAVANTMEKTRLGLAQIGKLNFTQLTEMLNAGMNRGLPSCLAAEDPSLSYHCKGLDIAAAAYTSELGHLANPVTTHVQPAEMANQAVNSLALISARRTTESNDVLSLLLATHLYCVLQAIDLRATEFEFKKQFGPAIVSLIDQHFGSAMTGSNLRDELVEKVNKTLAKRLEQTNSYDLVPRWHDAFSFAAGTVVEVLSSTSLSLAAVNAWKVAAAESAISLTRQVRETFWSAASTSSPALSYLSPRTQILYAFVREELGVKARRGDVFLGKQEVTIGSNVSKIYEAIKSGRINNVLLKMLA
B2: Rhodosporidium: PAL/TAL enzyme of the yeast Rhodosporidium, literature value (protein)
chain: B1 chain with T540I

What was measured:
[1] = Enzyme kinetics of purified wild type and mutant PAL, PAL activity (spectrophotometric); format: biochemical; settings: phenylalanine as substrate
Method: (§1) The PAL or TAL activity of the purified enzymes were measured using a spectrophotometer according to Abell et al., “Phenylalanine Ammonia-lyase from Yeast Rhodotorula glutinis,” Methods Enzymol. 142:242-248 (1987). The spectrophotometric assay for PAL determination was initiated by the addition of the enzyme to a solution containing 1.0 mM L-phenylalanine and 50 mM Tris-HCl (pH 8.5). The reaction was then followed by monitoring the absorbance of the product, cinnamic acid, at 290 nm using a molar extinction coefficient of 9000 cm^−1. The assay was run over a 5 min period using an amount of enzyme that produced absorbance changes in the range of 0.0075 to 0.018/min. One unit of activity indicated deamination of 1.0 μmol of phenylalanine to cinnamic acid per minute. The TAL activity was similarly measured using tyrosine in the reaction solution. The absorbance of the para-hydroxycinnamic acid produced was followed at 315 nm and the activity was determined using an extinction coefficient of 10,000 cm^−1 for PHCA. One unit of activity indicated deamination of 1.0 μmol of tyrosine to para-hydroxycinnamic acid per minute.
(§2) A detailed enzyme kinetics analysis using the yeast wild type and the purified mutant PAL enzyme and tyrosine or phenylalanine as substrate, was carried out. The PAL and TAL activities were measured spectrophotometrically as described in the General Methods and the KM and Vmax were determined from its Lineweaver-Burke plot. The kcat was calculated from Vmax assuming the presence of four active sites in the active tetramer.

[2] = Enzyme kinetics of purified wild type and mutant PAL, TAL activity (spectrophotometric); format: biochemical; settings: tyrosine as substrate
Method: as §1, §2

[3] = Ratio of TAL to PAL catalytic efficiency of purified enzymes; format: biochemical
Method: as §2
The catalytic efficiency, defined as kcat/KM, was calculated for both the wild type and mutant enzyme. The ratio of the TAL catalytic efficiency versus the PAL of the wild type enzyme was 0.5 while that of the mutant enzymes had increased to 1.7 (see Table 11).

[4] = Whole cell TAL activity assay (HPLC) in BL21(DE3) E. coli cells; format: cell-based; settings: for TAL Activity (%): 0.5 mM tyrosine, 37 C, 1 hr
Method: (§3) The following assay was performed to confirm that fully active mutant PAL enzyme was produced in BL21(DE3) E. coli cells. E. coli cells were grown in LB medium overnight. One mL of cell culture was pelleted and resuspended in 1 mL of 50 mM Tris-HCl buffer (pH 8.5) containing 0.5 mM tyrosine (for TAL activity measurement) or phenylalanine (for PAL activity measurement). The reaction mixture was incubated on the shaker at 37 C. for 1 hr. The reaction mixture was filtrated using 0.2 μm pore size filter (Millipore, Bedford, Mass.), and injected into HPLC (Hewlett-Packard Company, Palo Alto, Calif.). TAL or PAL activity was determined by measuring the concentration of the resulting PHCA or cinnamate.
The truncation mutants were analyzed by measuring TAL activity using the whole cell assay described in Example 17. Table 15 summarizes the results:
The C-terminal truncation mutant was analyzed by measuring TAL and PAL activities using the whole cell assay described in Example 17, and pET17b-Km-6 was used as positive control.

[5] = Whole cell TAL/PAL activity ratio (follow-up assay after high throughput screen); format: cell-based, E. coli
Method: as §3, with “cinnamate. […]” for “cinnamate.”
5,000 mutant colonies were picked from agarose plates and screened by high throughput assay (Example 20). The initial hits were further investigated by a follow-up assay to confirm screening results. The TAL and PAL activities were measured using the whole cell assay, described in Example 17, and then ratio of TAL/PAL activities was calculated. The following table summarizes results of the follow-up assay for four mutants with altered TAL/PAL ratios:
A total of 5,000 mutant colonies from these three libraries were screened by high throughput assay (Example 20). Initial hits were further investigated by a follow-up HPLC assay to confirm the screening results as described in Example 21. One mutant with improved TAL/PAL ratio was found (Table 19).

[6] = Whole cell PAL/TAL activity of colonies from the selection plates; format: cell-based, E. coli; settings: whole cell assay
Method: An HPLC assay was developed for measuring the levels of cinnamic acid and PHCA formed by the whole cells. In a typical assay, following centrifugation of a culture grown in the medium of choice, 20-1000 μL of the supernatant was acidified with phosphoric acid, filtered through a 0.2 or 0.45 micron filter and analyzed by the HPLC to determine the concentration of PHCA and cinnamic acid in the growth medium. Alternatively, following centrifugation, the cells were resuspended in 100 mM Tris-HCl (pH 8.5) containing 1.0 mM tyrosine or 1.0 mM phenylalanine and incubated at room temperature for 1.0-16 h. A filtered aliquot (20-1000 μL) of this suspension was then analyzed.
The colonies that had appeared on the selection plates were analyzed for their PAL/TAL activity using the whole cell assay described in the general methods. […] Genetic analysis for the EP18Km-6 mutant was carried out. The plasmid DNA was purified from the mutant cells, and then re-transformed into E. coli. […] To better characterize the mutants, the following analyses were carried out.

[7] = Hanson and Havir 1981; cited from earlier work
[8] = from Vmax assuming four active sites

| Molecule | Km ([1]; Lineweaver-Burke plot) [µM] | kcat [1, 8] [s⁻¹] | Km ([2]; Lineweaver-Burke plot) [µM] | kcat [2, 8] [s⁻¹] | TAL/PAL ratio (catalytic efficiency) [3] | TAL/PAL activity of enzyme expressed from pET17b ([4]; BL21(DE3) E. coli cells) | TAL Activity (%) ([4]; C-terminal truncation mutant in pET17b) | TAL Activity (%) ([4]; N-terminus truncation mutants in pET17b) | TAL/PAL ratio ([5]; regional mutants amino acid No. 120-280, Table 17) | TAL/PAL ratio ([5]; summary table of mutants) | TAL activity ratio versus wild type cell [6] | ratio of TAL catalytic activity to PAL catalytic activity [7] |
| --- | --- | --- | --- | --- | --- | --- | --- | --- | --- | --- | --- | --- |
| B1 | 333 | 2.45 | 50 | 0.63 | 1.7 | fully active | 100 | 100 | 1.7 | 1.7 | enhanced TAL activity ratio |  |
| B2 |  |  |  |  |  |  |  |  |  |  |  | approximately 0.58 |
